{"source": "the DeepSol protein solubility set", "data": [{"test": "soluble on expression in E. coli; label from the status in PepcDB or PDB records", "values": [{"sequence": "MSDLNNAIQGILDDHVARGVVGVSLALCLPGEETSLYQSGYADKFNKMPMTGDHLFRIASCTKSFIATGLHLLVQDGTVDLDEPITRWFPDLPKAAQMPVRILLNHRSGLPDFETSMPMISDKSWTAQEIVDFSFRHGVQKEPWHGMEYSNTGYVLAGMIIAHETGKPYSDHLRSRIFAPLGMKDTWVGTHETFPIEREARGYMHAAADDENPQWDVSGAGDPVDGVWDSTEWFPLSGANAAGDMVSTPRDIVKFLNALFDGRILDQKRLWEMKDNIKPAFFPGSNTVANGHGLLLMRYGSSELKGHLGQIPGHTSIMGRDEETGAALMLIQNSGAGDFESFYLKGVNEPVDRVLEAIKNSRS", "soluble on expression in E. coli": "soluble"}, {"sequence": "LITPQYKSEAKLYVLSKETTLTSLADLQIGSQLTQDYKILVGSRPVLQGVVDHMKLDMTYRKLEKKLTIDNPNNTRILTLTIKDPNPYLAKSIVDEVANTASDYIGEIMEMVPPKLIEDGEVASEKASPNVLKNT", "soluble on expression in E. coli": "not soluble"}, {"sequence": "MGSDKIHHHHHHMELKDYFPEMQVGPHPLGDKDWMSIKEGDQYVHFPKSCLSEKERLLLEVGLGQCEVLQPLGSPWQRYLLDHQGNPPQLYETSQFIYLNHQQALPDDLVELLQQMIAGLEVILPISATQTAFLCRQAISIKVLRWLEDLLPTLESDFGLALTMFVGNAWYQVAAGTLRECFEEECQLLTAYLRQQSGRKLLTFSGLMLWSLLSHHTFLALTRQFHQFLSPQSDMADVVHALWSEHGNLVQTAQRLYIHRNSLQYKLDKFAQQSGLHLKQLDDLAFAHLFLLKY", "soluble on expression in E. coli": "not soluble"}, {"sequence": "MKREILLERIDKLKQLMPWYVLEYYQSKLAVPYSFTTLYEYLKEYDRFFSWVLESGISNADKISDIPLSVLENMSKKDMESFILYLRERPLLNANTTKQGVSQTTINRTLSALSSLYKYLTEEVENDQGEPYFYRNVMKKVSTKKKKETLAARAENIKQKLFLGDETEGFLTYIDQEHPQQLSNRALSSFNKNKERDLAIIALLLASGVRLSEAVNLDLRDLNLKMMVIDVTRKGCKRDSVNVAAFAKPYLENYLAIRNQRYKTEKTDTALFLTLYRGVPNRIDASSVEKMVAKYSEDFKVRVTPHKLRHTLATRLYDATKSQVLVSHQLGHASTQVTDLYTHIVSDEQKNALDSL", "soluble on expression in E. coli": "not soluble"}, {"sequence": "MSLAQIDFRKKINWHRRYRSPQGVKTEHEILRIFESDRGRIINSPAIRRLQQKTQVFPLERNAAVRTRLTHSMEVQQVGRYIAKEILSRLKELKLLEAYGLDELTGPFESIVEMSCLMHDIGNPPFGHFGEAAINDWFRQRLHPEDAESQPLTDDRCSVAALRLRDGEEPLNELRRKIRQDLCHFEGNAQGIRLVHTLMRMNLTWAQVGGILKYTRPAWWRGETPETHHYLMKKPGYYLSEEAYIARLRKELNLALYSRFPLTWIMEAADDISYCVADLEDAVEKRIFTVEQLYHHLHEAWGQHEKGSLFSLVVENAWEKSRSNSLSRSTEDQFFMYLRVNTLNKLVPYAAQRFIDNLPAIFAGTFNHALLEDASECSDLLKLYKNVAVKHVFSHPDVERLELQGYRVISGLLEIYRPLLSLSLSDFTELVEKERVKRFPIESRLFHKLSTRHRLAYVEAVSKLPSDSPEFPLWEYYYRCRLLQDYISGMTDLYAWDEYRRLMAVEQEGHHHHHH", "soluble on expression in E. coli": "soluble"}, {"sequence": "ESSDHLRLVAWYIPVKNSKRTVVLAHGFAGNKGLMGAWAGMYHELGYNVLVPDSRASGASQGKAVGYGWLERRDDLQWAKTVVHKTATTQIVMSGISMGAAGMTMASGERQLPQIKAYVVDSPFTSADAIISYQAGQLYHLPAFPLVNVTSLITKLRAGYSFKEADAVAQIRKNHLPIMIISGTRDDFVPTSMGKTLYRNAHQPKSLWLVKGAGHTTAITQNYQRYKRHVTAFLEQYVQ", "soluble on expression in E. coli": "not soluble"}, {"sequence": "MADRPQLSIIIPVFNEAKILQKSPTENTRQYLGQFTEDQRIEILIIDGGSQDSTVELCQTYADSLPLHVFISPQTGRANQMNYGASLSRSEWLLFLHLDSILPHDFFTQIAEILTNSSYIAGAFGLTIDLPGRPYRWLEKLILWRSIYAQKPYGDQGLFIQRQDFQQLGGFADLPIMEDYQFMQKLGKQRGKVAIAGGKVITSGRRWQKLGLLRTTAINQLVVAGYHLGVSPQTLVHWYRGAKPNRGNRPNSDGTSCLEHHHHHH", "soluble on expression in E. coli": "soluble"}, {"sequence": "MAHHHHHHMRLRSPCGVKGIAADALVDLVQSCYPSATVLFTSVANNVAAADNSELRISSSLDAWQAKLHTRRAWRQGLSVDTPGFQRILARRHIVPARSAEAAASSWWALLYAADATNRPRVALPRQPSQSLPPSHIAHPILCCPDAIVYIGGVEVRDVTQVVAPTLVDAVTRVEAPHSTVGAASATHRAERQAPSYCRRRVDWPTVWADKRCAMRGADLLELSLAVPSDLGHRHADVRERVLVSIANPDVTLADLQRQPHAGRRGPLRTSFGFSLPCVQAALPAAVIRAVRVLRRWQRDVAHCIPSTSAFWVSSIGHLLETSVGDAASPLTQWAEACTRQEQELGMSETQMRHLFAIVQPDSDQTSTRVPLPEDATKLLTFLLTSTVLQLACTSPLEAWNGTNYFLPAERFDGTTDAEVLLRTMRSVAGTHLTFPIFSSLYGSPCGAEQGPLSQSSP", "soluble on expression in E. coli": "not soluble"}, {"sequence": "MSLYKVYGDYQSGNCYKVKLMLSLLGRPYEWHPVDILKGETETPEFLAMNPNGKVPVLELEDGSYLWESNAILNYLADGSEFLPSEPRLRTQVLQWQFFEQYSHEPYIAVARFIQFYLGLPDERLDEYRKLHKGGYKALKVMERQLQMTPYLVGEQYSIADVALYAYTHVAQQGGFDLADYPAVRAWLERVSSHPRHVPMVGEGHHHHHH", "soluble on expression in E. coli": "soluble"}, {"sequence": "MPDIVNRKVEHVEIAAFENVDGLSSSTFLNDVILVHQGFPGISFSEINTKTKFFRKEISVPVMVTGMTGGRNELGRINKIIAEVAEKFGIPMGVGSQRVAIEKAEARESFAIVRKVAPTIPIIANLGMPQLVKGYGLKEFQDAIQMIEADAIAVHLNPAQEVFQPEGEPEYQIYALEKLRDISKELSVPIIVKESGNGISMETAKLLYSYGIKNFDTSGQGGTNWIAIEMIRDIRRGNWKAESAKNFLDWGVPTAASIMEVRYSVPDSFLVGSGGIRSGLDAAKAIALGADIAGMALPVLKSAIEGKESLEQFFRKIIFELKAAMMLTGSKDVDALKKTSIVILGKLKEWAEYRGINLSIYEKVRKRE", "soluble on expression in E. coli": "soluble"}, {"sequence": "MARPETESKTIFGKRLRYVRLALGDPSREALAKSFSMTKNSIAFYERGEREPNLSVLQTYRTLYGVNINWLLTGQGKMFDTEYTKGDFDWNYFIKKIEGLEEILSNSDRSEKLNQEKIESSYEKLQQYLSRQGSTNRYTPKAATSLIDMKAKMANSYALSLFIDLLIRSISQKEVVANQ", "soluble on expression in E. coli": "not soluble"}, {"sequence": "MQWQTKLPLIAILRGITPDEALAHVGAVIDAGFDAVEIPLNSPQWEQSIPAIVDAYGDKALIGAGTVLKPEQVDALARMGCQLIVTPNIHSEVIRRAVGYGMTVCPGCATATEAFTALEAGAQALKIFPSSAFGPQYIKALKAVLPSDIAVFAVGGVTPENLAQWIDAGCAGAGLGSDLYRAGQSVERTAQQAAAFVKAYREAVQLHHHHHH", "soluble on expression in E. coli": "soluble"}, {"sequence": "MPIKSKANEVPKEEAGVKKETPKVARKATKKDTPKELKDKENAGDDNTPKQTKGRPGRPAAKRKNLDTPDVTEKLAMEEENPPKRRSSRLTRSTRSMAEDGSPSPEKEKPEKLPFIKYKGAIKYFTESQDIAASADDVLQWVEKQKDEVVPMAFDMEWPFSFQTGPGKSAVIQICVDEKCCYIYQLTNVKKLPAALVALINHPKVRLHGVNIKNDFRKLARDFPEVTAEPLIEKCVDLGLWCNEVCETGGRWSLERLTNFIAKKAMDKSKKVRMSKWHVIPLDENQLMYAAIDVYIGQVIYRELERREKVKIKNEEEFKEKNGDAAFKAMKALGETFLTKINEVTLLEHHHHHH", "soluble on expression in E. coli": "soluble"}, {"sequence": "MGSDKIHHHHHHMKNDKNLLQHFSREEREFVEKIMDMCQQVEDTYSYRLTHFLHPRQDEIVCKIANYYQLQTFSSRDLVSTEHSRVIIAPTYYELDIKHFELTALHLSYARKFHTLSHSQVLGTFLNQLGIKREYLGDILIDDERLIVFIDQKFGQIALQSITKVARVPVKGKEEEWTTVRLPIGQEWRSKDVLVSSMRLDKLISVAFNLSRATANKLIEAGHVKLDYVLTEQTSKLVEIGQLISVRRYGRVRLNEFLGFSKQGKIKLKLDIVKT", "soluble on expression in E. coli": "not soluble"}]}]}
